Laboratory results reported in paper PMC6057269, “A Flat BAR Protein Promotes Actin Polymerization at the Base of Clathrin-Coated Pits” (Cell, 2018).
Where a chain is given by its changes, count along the chain named.

How the values were obtained:
[1] = target: T1, ITSN1 SH3d (aa1076-1138), recombinant (human, UniProt Q15811-1 1076-1138); test: pull-down; GST-tagged SH3 domains on glutathione beads incubated with recombinant protein for 10 min at room temperature, 6 washes; Coomassie stained gel; conditions: both partners purified
T1 construct: Intersectin 1 long form (ITSN1L), human, fourth SH3 domain (SH3d), residues 1076-1138; The purification of this protein is not described; the tag was probably cleaved as for the FCHSD2 proteins (surmised); also called pOPINS-ITSN1-SH3d; source: E. coli, 6xHis-SUMO construct (pOPINS)
T1 sequence (looked up): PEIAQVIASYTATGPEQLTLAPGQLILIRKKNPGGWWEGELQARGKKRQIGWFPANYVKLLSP

[2] = target: T1, ITSN1 SH3d (aa1076-1138), recombinant; test: ITC; isothermal titration calorimetry of FCHSD2 SH3-2 and ITSN1 SH3d; conditions and direction of titration not told; conditions: both partners purified
[3] = target: T2, GST-tagged ITSN1 SH3d (aa1076-1138) T1086A (human, UniProt Q15811-1 1076-1138, T1086A); test: pull-down; GST-tagged SH3 domains on glutathione beads incubated with recombinant protein for 10 min at room temperature, 6 washes; Coomassie stained gel; conditions: both partners purified
T2 construct: Intersectin 1 long form (ITSN1L), human, SH3d, residues 1076-1138; also called crystal contact control mutant T1086; not shown: GST, N-terminal, kept
T2 sequence (looked up): T1 sequence (looked up) with T11A

[4] = target: the molecule itself; test: cryo-EM structure; single particle cryo-EM of F2B1 at 0.15-0.3 mg/ml; C2 symmetry applied; 9.2 Å reconstruction
[5] = target: the molecule itself; test: SEC-MALS; Superdex S-200 10/300, 150 mM NaCl, 20 mM HEPES pH 7.5, 500 μM TCEP; F2B12 at two concentrations

B1: GST-tagged FCHSD2 SH3-2 (aa568-629) N613A (domain or fragment, human, UniProt O94868-1 568-629, looked up)
chain: SVCFVKALYDYEGQTDDELSFPEGAIIRILNKENQDDDGFWEGEFAGRIGVFPSVLVEELSA
notes: FCHSD2, human, second SH3 domain, residues 568-629; also called crystal contact control mutant N613; not shown: GST, N-terminal, kept
binding result [1]: binds

B2: GST-tagged FCHSD2 SH3-2 (aa568-629) D583A (domain or fragment, human, UniProt O94868-1 568-629, looked up)
chain: B1 chain with D16A, A46N
notes: FCHSD2, human, second SH3 domain, residues 568-629; also called crystal contact control mutant D583; not shown: GST, N-terminal, kept
binding result [1]: binds

B3: FCHSD2 SH3-2 (aa568-629), recombinant (domain or fragment, human, UniProt O94868-1 568-629, looked up)
chain: B1 chain with A46N
notes: FCHSD2, human, second SH3 domain, residues 568-629; that the same preparation was the prey of the GST pull-downs and the ITC sample is surmised; also called pOPINS-FCHSD2 SH3-2; F2S2; source: E. coli Rosetta (DE3), purified (HisTrap, anion exchange, Sumo protease, Superdex 200); not shown: His-SUMO, N-terminal, cleaved
Kd [2]: 248 nM | stoichiometry N [2]: ~1 | binding result [3]: binds

B4: FCHSD2 BAR + SH3-1 (F2B1: aa1-530) (domain or fragment, human, UniProt O94868-1 1-530, looked up)
chain: MQPPPRKVKVTQELKNIQVEQMTKLQAKHQAECDLLEDMRTFSQKKAAIEREYAQGMQKLASQYLKRDWPGVKADDRNDYRSMYPVWKSFLEGTMQVAQSRMNICENYKNFISEPARTVRSLKEQQLKRCVDQLTKIQTELQETVKDLAKGKKKYFETEQMAHAVREKADIEAKSKLSLFQSRISLQKASVKLKARRSECNSKATHARNDYLLTLAAANAHQDRYYQTDLVNIMKALDGNVYDHLKDYLIAFSRTELETCQAVQNTFQFLLENSSKVVRDYNLQLFLQENAVFHKPQPFQFQPCDSDTSRQLESETGTTEEHSLNKEARKWATRVAREHKNIVHQQRVLNDLECHGAAVSEQSRAELEQKIDEARENIRKAEIIKLKAEARLDLLKQIGVSVDTWLKSAMNQVMEELENERWARPPAVTSNGTLHSLNADTEREEGEEFEDNMDVFDDSSSSPSGTLRNYPLTCKVVYSYKASQPDELTIEEHEVLEVIEDGDMEDWVKARNKVGQVGYVPEKYLQFPTS
notes: FCHSD2, human, F-BAR + SH3-1, residues 1-530; also called FCHSD2 F-BAR+SH3-1; source: E. coli Rosetta (DE3), purified (HisTrap, anion exchange, Sumo protease, Superdex 200); not shown: His-SUMO, N-terminal, cleaved
binding result [4]: binds

B5: FCHSD2 BAR + SH3-1 + SH3-2 (F2B12: aa1-629) (domain or fragment, human, UniProt O94868-1 1-629, looked up)
chain: MQPPPRKVKVTQELKNIQVEQMTKLQAKHQAECDLLEDMRTFSQKKAAIEREYAQGMQKLASQYLKRDWPGVKADDRNDYRSMYPVWKSFLEGTMQVAQSRMNICENYKNFISEPARTVRSLKEQQLKRCVDQLTKIQTELQETVKDLAKGKKKYFETEQMAHAVREKADIEAKSKLSLFQSRISLQKASVKLKARRSECNSKATHARNDYLLTLAAANAHQDRYYQTDLVNIMKALDGNVYDHLKDYLIAFSRTELETCQAVQNTFQFLLENSSKVVRDYNLQLFLQENAVFHKPQPFQFQPCDSDTSRQLESETGTTEEHSLNKEARKWATRVAREHKNIVHQQRVLNDLECHGAAVSEQSRAELEQKIDEARENIRKAEIIKLKAEARLDLLKQIGVSVDTWLKSAMNQVMEELENERWARPPAVTSNGTLHSLNADTEREEGEEFEDNMDVFDDSSSSPSGTLRNYPLTCKVVYSYKASQPDELTIEEHEVLEVIEDGDMEDWVKARNKVGQVGYVPEKYLQFPTSNSLLSMLQSLAALDSRSHTSSNSTEAELVSGSLNGDASVCFVKALYDYEGQTDDELSFPEGAIIRILNKENQDDDGFWEGEFNGRIGVFPSVLVEELSA
notes: FCHSD2, human, F-BAR + SH3-1 + SH3-2, residues 1-629; also called FCHSD2 (F2B12 construct); source: E. coli Rosetta (DE3), purified (HisTrap, anion exchange, Sumo protease, Superdex 200); not shown: His-SUMO, N-terminal, cleaved
stoichiometry N [5]: 2
